Experimental data taken from paper PMC5339848.

Key:
[1] = biological target: AP1M1 (mu subunit of the AP1 complex) (UniProt Q9BXS5); assay: competitive binding with synthetic peptides, in vitro; conditions: reference: unphosphorylated peptide; sites Y8
[2] = biological target: AP2M1 (mu subunit of the AP2 complex) (UniProt Q96CW1); assay: as above; conditions: reference: unphosphorylated peptide; sites Y8

binding against the reference [1]: stronger
binding against the reference [2]: stronger
Substance: mATG9 1-18 (from UniProt Q7Z3C6) pY8 peptide
